Results taken from patent US6187552A, “Method for identifying inhibitors of JAK2/cytokine receptor binding” (Pharmacia & Upjohn Company, priority 1998, dated 2001).
Values belong to the molecule of their own block, whether it stands above or below them.

Assays:
[1] = system: peptide 4 (βc peptide) bound to SPA beads; test: SPA competition: unlabeled JAK2 against labeled JAK2/NJAK2 for peptide 4 bound to SPA beads; format: binding, human
[2] = biological target: T1, human JAK2 (Homo sapiens, UniProt O60674); test: SPA: binding of 3H-JAK2 to βc peptides on streptavidin-coated beads; settings: JAK2 from 32.5 nM to 16.25 nM; FIG. 14
T1 construct: NJAK2 = N-terminal 294 residues
Experimental: Cells were lysed by dounce homogenization (20 strokes) in 1X phosphate buffered saline (PBS), pH 7.5 at 4 C. […] For some experiments, the JAK2 protein (0.15 mg/ml), aliquoted into 7 equivalent tubes, was then subjected to ultracentrifugation in an Airfuge using an A-110 rotor at an average of 164,000×g for a period of 6 hours at ambient temperature. At zero time, and at each subsequent hour thereafter, a tube of JAK2 was removed for analyses (ELISA, SDS polyacrylamide gel electrophoresis, and Western blotting).
Three different labeling reactions were done using ^3 H-N-succinimidyl propionate (^3 H-NSP, Amersham Life Sciences, Arlington Heights, Ill.). One reaction was done using 0.5 mg of purified JAK2 in 0.1 M borate buffer, pH 8.5, with a reaction volume of 150 μl and an incubation time of one hour on ice with dried 1 mCi of ^3 H-NSP (toluene was removed using a stream of nitrogen). […] Another reaction was done using the buffer 0.1 M sodium phosphate, pH 8.0, and a similar volume as before. One milligram of JAK2 in 1.2 ml of phosphate buffer was incubated for three hours on ice. […]
Triplicate reactions were done for each data point. […] The plates were then read on a MicroBeta (Wallac) set to read scintillation due to tritium.
Either ^3 H-JAK2 or ^3 H-NJAK2 was added to the wells and, after incubation, the signals measured. […]

[3] = JAK2 remaining soluble after ultracentrifugation (ELISA) / aggregation; format: physicochemical
Experimental: Recombinant JAK2 protein containing the Flag affinity label ([…]) [SEQ ID NO:20] was expressed in either SF9 or HI-5 cells as described. Cells were lysed by dounce homogenization (20 strokes) in 1X phosphate buffered saline (PBS), pH 7.5 at 4 C. Clarified extract was passed through an anti-Flag immunoaffinity column (Kodak, New Haven, Conn.) and purified recombinant JAK2 was eluted by competition with a solution of Flag peptide at a concentration of 250 ug/ml in 1×PBS. Purity was characterized by a single band on SDS polyacrylamide gels. For some experiments, the JAK2 protein (0.15 mg/ml), aliquoted into 7 equivalent tubes, was then subjected to ultracentrifugation in an Airfuge using an A-110 rotor at an average of 164,000×g for a period of 6 hours at ambient temperature. At zero time, and at each subsequent hour thereafter, a tube of JAK2 was removed for analyses (ELISA, SDS polyacrylamide gel electrophoresis, and Western blotting).
Aliquots of the above supernatants were removed and subjected to an ELISA assay. Each solution was diluted 1:50 with 0.1M sodium carbonate, pH 9.0, and applied in multiple concentrations to a 96 well plate. After an overnight incubation, each well was washed with 0.1% BSA in 1×PBS, pH 7.5 (wash buffer), followed by continued incubation for an additional hour at 4 C. The wells were then incubated with 150 ul of C20 anti-JAK2 antibody (Santa Cruz Biotechnology, Santa Cruz, Calif.) in wash buffer for 1 hour at 4 C., followed by extensive washes with wash buffer. Secondary antibody (150 ul of alkaline phosphatase labeled goat anti-rabbit IgG (Promega, Madison, Wis.) at a dilution of 1:2000) was applied for 1 hour at 4 C., followed by extensive washes with buffer. Finally, wells were incubated with 0.1 M Tris HCl, 5 mM MgCl2, pH 9.5, and then with the same buffer (150 ul) containing 5 mg/ml p-nitrophenylphosphate (pNPP). Color formation was read by a SpectraMax 250 plate reader set at an absorbance of 405 nm. The linear phase of each concentration curve was chosen for each of the time points (0,1,2,3,4,5,and 6 hours of ultracentrifugation) in order to calculate the relative amount of recombinant JAK2 remaining in the supernatant of each fraction.
To see whether more highly aggregated JAK2 could be separated by ultracentifugation from less aggregated or monomeric JAK2, a sample of freshly purified JAK2 at a defined concentration was centrifuged in an airfuge as described in Materials and Methods. Samples were taken at 7 different time points over a 6 hour period to assess the amount of JAK2 which remained in the supernatant phase. After 1 hour at 164,000×g, 40 to 50% of the original JAK2 was detected, a value which remained relatively constant for up to 5 additional hours in this experiment. […] Since the supernatant was removed from below the meniscus by pipetting, a determination of the molecular weight could not be established in this experiment.

B1: JAK2 from the supernatant: supernatant after 1 hour of ultracentrifugation of JAK2 (protein, UniProt O60674 1-1132, looked up)
Tyrosine-protein kinase JAK2: MGMACLTMTEMEGTSTSSIYQNGDISGNANSMKQIDPVLQVYLYHSLGKSEADYLTFPSGEYVAEEICIAASKACGITPVYHNMFALMSETERIWYPPNHVFHIDESTRHNVLYRIRFYFPRWYCSGSNRAYRHGISRGAEAPLLDDFVMSYLFAQWRHDFVHGWIKVPVTHETQEECLGMAVLDMMRIAKENDQTPLAIYNSISYKTFLPKCIRAKIQDYHILTRKRIRYRFRRFIQQFSQCKATARNLKLKYLINLETLQSAFYTEKFEVKEPGSGPSGEEIFATIIITGNGGIQWSRGKHKESETLTEQDLQLYCDFPNIIDVSIKQANQEGSNESRVVTIHKQDGKNLEIELSSLREALSFVSLIDGYYRLTADAHHYLCKEVAPPAVLENIQSNCHGPISMDFAISKLKKAGNQTGLYVLRCSPKDFNKYFLTFAVERENVIEYKHCLITKNENEEYNLSGTKKNFSSLKDLLNCYQMETVRSDNIIFQFTKCCPPKPKDKSNLLVFRTNGVSDVPTSPTLQRPTHMNQMVFHKIRNEDLIFNESLGQGTFTKIFKGVRREVGDYGQLHETEVLLKVLDKAHRNYSESFFEAASMMSKLSHKHLVLNYGVCVCGDENILVQEFVKFGSLDTYLKKNKNCINILWKLEVAKQLAWAMHFLEENTLIHGNVCAKNILLIREEDRKTGNPPFIKLSDPGISITVLPKDILQERIPWVPPECIENPKNLNLATDKWSFGTTLWEICSGGDKPLSALDSQRKLQFYEDRHQLPAPKWAELANLINNCMDYEPDFRPSFRAIIRDLNSLFTPDYELLTENDMLPNMRIGALGFSGAFEDRDPTQFEERHLKFLQQLGKGNFGSVEMCRYDPLQDNTGEVVAVKKLQHSTEEHLRDFEREIEILKSLQHDNIVKYKGVCYSAGRRNLKLIMEYLPYGSLRDYLQKHKERIDHIKLLQYTSQICKGMEYLGTKRYIHRDLATRNILVENENRVKIGDFGLTKVLPQDKEYYKVKEPGESPIFWYAPESLTESKFSVASDVWSFGVVLYELFTYIEKSKSPPAEFMRMIGNDKQGQMIVFHLIELLKNNGRLPRPDGCPDEIYMIMTECWNNNVNQRPSFRDLALRVDQIRDNMAG
apparent Kd versus more aggregated JAK2 ([1]; inferred from competition of supernatant, FIG. 18): higher apparent Kd than the more aggregated JAK2 | competition with labeled JAK2 versus starting material ([1]; supernatant after ultracentrifugation, peptide 4 on beads, FIG. 18): competed less effectively than the starting material

competition of labeled JAK2 binding ([1]; 5-fold excess unlabeled JAK2, peptide 4): competed significantly | competition of labeled NJAK2 binding ([1]; 10-fold excess unlabeled JAK2, peptide 4): reduced almost to background | signal obtained on lowering final JAK2 concentration [2]: decreases significantly
B2: JAK2: Recombinant JAK2 protein containing the Flag affinity label, expressed in SF9 or HI-5 cells (protein)
chain: MACLTMTEMEGTSTSSIYQNGDISGNANSMKQIDPVLQVYLYHSLGKSEADYLTFPSGEYVAEEICIAASKACGITPVYHNMFALMSETERIWYPPNHVFHIDESTRHNVLYRIRFYFPRWYCSGSNRAYRHGISRGAEAPLLDDFVMSYLFAQWRHDFVHGWIKVPVTHETQEECLGMAVLDMMRIAKENDQTPLAIYNSISYKTFLPKCIRAKIQDYHILTRKRIRYRFRRFIQQFSQCKATARNLKLKYLINLETLQSAFYTEKFEVKEPGSGPSGEEIFATIIITGNGGIQWSRGKHKESETLTEQDLQLYCDFPNIIDVSIKQANQEGSNESRVVTIHKQDGKNLEIELSSLREALSFVSLIDGYYRLTADAHHYLCKEVAPPAVLENIQSNCHGPISMDFAISKLKKAGNQTGLYVLRCSPKDFNKYFLTFAVERENVIEYKHCLITKNENEEYNLSGTKKNFSSLKDLLNCYQMETVRSDNIIFQFTKCCPPKPKDKSNLLVFRTNGVSDVPTSPTLQRPTHMNQMVFHKIRNEDLIFNESLGQGTFTKIFKGVRREVGDYGQLHETEVLLKVLDKAHRNYSESFFEAASMMSKLSHKHLVLNYGVCVCGDENILVQEFVKFGSLDTYLKKNKNCINILWKLEVAKQLAWAMHFLEENTLIHGNVCAKNILLIREEDRKTGNPPFIKLSDPGISITVLPKDILQERIPWVPPECIENPKNLNLATDKWSFGTTLWEICSGGDKPLSALDSQRKLQFYEDRHQLPAPKWAELANLINNCMDYEPDFRPSFRAIIRDLNSLFTPDYELLTENDMLPNMRIGALGFSGAFEDRDPTQFEERHLKFLQQLGKGNFGSVEMCRYDPLQDNTGEVVAVKKLQHSTEEHLRDFEREIEILKSLQHDNIVKYKGVCYSAGRRNLKLIMEYLPYGSLRDYLQKHKERIDHIKLLQYTSQICKGMEYLGTKRYIHRDLATRNILVENENRVKIGDFGLTKVLPQDKEYYKVKEPGESPIFWYAPESLTESKFSVASDVWSFGVVLYELFTYIEKSKSPPAEFMRMIGNDKQGQMIVFHLIELLKNNGRLPRPDGCPDEIYMIMTECWNNNVNQRPSFRDLALRVDQIRDNMAGDYKDDDDKN
modifications: Flag tag
% JAK2 Remaining ([3]; 0 hours ultracentrifugation): 100% | % JAK2 Remaining ([3]; 1 hour ultracentrifugation, 164,000×g): 46.0% | % JAK2 Remaining ([3]; 2 hours ultracentrifugation, 164,000×g): 39.6% | % JAK2 Remaining ([3]; 3 hours ultracentrifugation, 164,000×g): 32.5% | % JAK2 Remaining ([3]; 4 hours ultracentrifugation, 164,000×g): 43.7% | % JAK2 Remaining ([3]; 5 hours ultracentrifugation, 164,000×g): 44.1% | % JAK2 Remaining ([3]; 6 hours ultracentrifugation, 164,000×g): 41.3% | original JAK2 detected in supernatant ([3]; after 1 hour at 164,000×g, relatively constant up to 5 additional hours): 40 to 50% | JAK2 remaining soluble as defined by ELISA ([3]; after ultracentrifugation): 50% | aggregation by size exclusion chromatography ([3]; data not shown): exhibited degrees of aggregation
